Key:
[1] = test system: EFGRvIII-overexpressing human glioma cell line U87-EGFRvIII; assay: MTS cytotoxicity (cell viability) assay, U87-EGFRvIII; type: cell-based; details: antibodies; 72 hours; read-out: IC50, U87MG-EGFRvIII (MTS)
Method: (§1) TDC cytotoxic activity was determined via the following experimental procedure: TDC was added to EGFR-overexpressing or […]-expressing human tumor cell culture medium, and cell viability was determined after 72 hours of cell culture. Cell-based in vitro experiments were used to determine cell viability, cytotoxicity and programmed cell death induced by TDC constituted by the present invention.
(§2) In vitro efficacy of antibody-toxin conjugates was determined via a cell proliferation assay. A CellTiter ^96® AqueousOne Solution Cell was Proliferation Assay purchased commercially from Promega Corp. (Madison, WI). CellTiter ^96® Aqueous One Solution Cell Proliferation Assay (a) is a colorimetric method used to detect the number of living cells in cell proliferation and cytotoxicity experiments. The above reagent contains the novel tetrazole compound [3-(4,5-dimethylthiazol-2-yl)-5-(3-carboxymethoxyphenyl)-2-(4-sulfophenyl)-2H-tetrazolium, inner salt; MTS) as well as an electronic coupling agent (phenazine ethosulfate; PES). […] This convenient “single solution” model is an improvement on the first generation of the CellTiter ^96® Aqueous Assay, in which the electronic coupling agent PMS was supplied separately from the MTS solution. MTS (Owen's reagent) is reduced by cellular organisms into a colored formazan product, which can be directly dissolved in culture medium (FIG. 1). This conversion is likely facilitated by NADPH NADH produced by dehydrogenase present in metabolically active cells. For the assay, a small amount of CellTiter ^96® Aqueous One Solution Reagent is added directly to the medium present in the wells of the culture plate, after which incubation is performed for 1 to 4 hours, followed by reading of the absorbance value at 490 nm using a microplate reader.
(§3) The amount of formazan product detected at 490 nm is proportional to the number of viable cells in culture. Because the formazan product of MTS is soluble in tissue culture medium, CellTiter ^96® Aqueous One Solution Assay requires fewer steps than the MTT or INT methods. A431 (EGFR-overexpressing cells) and U87-[…] (an […] mutant stable cell line) were used in the present invention as an investigative system for performing in vitro efficacy assays. In 96-well plates, cells were plated at 6000 cells/well and 24 hours later, antibody spiking was carried out. […] Cell viability was assayed via MTS 72 hours after treatment.

[2] = test system: EGFRwt-overexpressing human skin squamous cell carcinoma cell line A431; assay: MTS cytotoxicity (cell viability) assay, A431; type: cell-based; details: antibodies; 72 hours
Method: as §1, §2, §3

[3] = biological target: T1, Recombinant EGFRVIII-His*6 antigen (Homo sapiens, UniProt P00533, DELINS30-297G); assay: ELISA relative affinity for EGFRvIII; type: binding; details: for EC50: EGFRvIII-coated plates, A450, read-out: EC50 (nM), mutant antibody affinity
T1 construct: His*6
Text: Insertion Mutation Modification and Parent Antibody 2A1 for EGFRvIII • ELISA was used to compare the relative affinities of 2A1-LC-Cys110ins-mc-vc-PAB-MMAE TDC, 2A1-LC-Cys111ins-mc-vc-PAB-MMAE TDC, 2A1-LC-Cys142ins-mc-vc-PAB-MMAE TDC, 2A1-HC-Cys254ins-mc-vc-PAB-MMAE TDC, 2A1-HC-Cys255ins-mc-vc-PAB-MMAE TDC, 2A1-HC-Cys258ins-mc-vc-PAB-MMAE TDC, 2A1-HC-Cys259ins-mc-vc-PAB-MMAE TDC, 2A1-HC-Cys354ins-mc-vc-PAB-MMAE TDC, 2A1-HC-Cys355ins-mc-vc-PAB-MMAE TDC, 2A1-HC-Cys357ins-mc-vc-PAB-MMAE TDC, 2A1-HC-Cys378ins-mc-vc-PAB-MMAE TDC, 2A1-HC-Cys379ins-mc-vc-PAB-MMAE TDC, 2A1-HC-Cys386ins-mc-vc-PAB-MMAE TDC, 2A1-HC-Cys387ins-mc-vc-PAB-MMAE TDC, 2A1-HC-Cys410ins-mc-vc-PAB-MMAE TDC, and 2A1 for EGFRvIII. The specific process used was as follows:
Recombinant […]-His*6 antigen was used to coat plates; fish skin gelatin was used as a seal; dilution of each insertion mutant antibody was performed separately, up to a maximum concentration 10 μg/ml and a 4-fold gradient dilution was performed for a total of 11 concentrations; HRP-labeled secondary antibodies were used for incubation; TMB was used for development and absorption detection was performed at 450 nm.

Row | Molecule | IC50 [1] | IC50 [2] | Affinity for EGFRvIII relative to 2A1 (in words) [3] | EC50 [3]
1 | 2A1-HC-Cys259ins: 2A1 antibody with cysteine inserted at heavy chain position 259 (SEQ ID NO: 28) (antibody) heavy: DVQLQESGPSLVKPSQSLSLTCTVTGYSITSDFAWNWIRQFPGNKLEWMGYISYSGNTRYNPSLKSRISITRDTSKNQFFLQLNSVTIEDTATYYCVTAGRGFPYWGQGTLVTVSAASTKGPSVFPLAPSSKSTSGGTAALGCLVKDYFPEPVTVSWNSGALTSGVHTFPAVLQSSGLYSLSSVVTVPSSSLGTQTYICNVNHKPSNTKVDKRVEPKSCDKTHTCPPCPAPEFLGGPSVFLFPPKPKDTLMISRTPEVTCVCVVDVSHEDPEVKFNWYVDGVEVHNAKTKPREEQYNSTYRVVSVLTVLHQDWLNGKEYKCKVSNKALPAPIEKTISKAKGQPREPQVYTLPPSRDELTKNQVSLTCLVKGFYPSDIAVEWESNGQPENNYKTTPPVLDSDGSFFLYSKLTVDKSRWQQGNVFSCSVMHEALHNHYTQKSLSLSPG light: DILMTQSPSSMSVSLGDTVSITCHSSQDINSNIGWLQQRPGKSFKGLIYHGTNLDDEVPSRFSGSGSGADYSLTISSLESEDFADYYCVQYAQFPWTFGGGTKLEIKRTVAAPSVFIFPPSDEQLKSGTASVVCLLNNFYPREAKVQWKVDNALQSGNSQESVTEQDSKDSTYSLSSTLTLSKADYEKHKVYACEVTHQGLSSPVTKSFNRGEC | > 10 µM | > 10 µM | maintained 2A1 affinity | 0.0431 nM
2 | 2A1-HC-Cys354ins: 2A1 antibody with cysteine inserted at heavy chain position 354 (SEQ ID NO: 30) (antibody) heavy: DVQLQESGPSLVKPSQSLSLTCTVTGYSITSDFAWNWIRQFPGNKLEWMGYISYSGNTRYNPSLKSRISITRDTSKNQFFLQLNSVTIEDTATYYCVTAGRGFPYWGQGTLVTVSAASTKGPSVFPLAPSSKSTSGGTAALGCLVKDYFPEPVTVSWNSGALTSGVHTFPAVLQSSGLYSLSSVVTVPSSSLGTQTYICNVNHKPSNTKVDKRVEPKSCDKTHTCPPCPAPEFLGGPSVFLFPPKPKDTLMISRTPEVTCVVVDVSHEDPEVKFNWYVDGVEVHNAKTKPREEQYNSTYRVVSVLTVLHQDWLNGKEYKCKVSNKALPAPIEKTISKAKGQPREPQVYTLPPSRDECLTKNQVSLTCLVKGFYPSDIAVEWESNGQPENNYKTTPPVLDSDGSFFLYSKLTVDKSRWQQGNVFSCSVMHEALHNHYTQKSLSLSPG light: DILMTQSPSSMSVSLGDTVSITCHSSQDINSNIGWLQQRPGKSFKGLIYHGTNLDDEVPSRFSGSGSGADYSLTISSLESEDFADYYCVQYAQFPWTFGGGTKLEIKRTVAAPSVFIFPPSDEQLKSGTASVVCLLNNFYPREAKVQWKVDNALQSGNSQESVTEQDSKDSTYSLSSTLTLSKADYEKHKVYACEVTHQGLSSPVTKSFNRGEC | > 10 µM | > 10 µM | maintained 2A1 affinity | 0.0405 nM
3 | 2A1-HC-Cys355ins: 2A1 antibody with cysteine inserted at heavy chain position 355 (SEQ ID NO: 32) (antibody) heavy: DVQLQESGPSLVKPSQSLSLTCTVTGYSITSDFAWNWIRQFPGNKLEWMGYISYSGNTRYNPSLKSRISITRDTSKNQFFLQLNSVTIEDTATYYCVTAGRGFPYWGQGTLVTVSAASTKGPSVFPLAPSSKSTSGGTAALGCLVKDYFPEPVTVSWNSGALTSGVHTFPAVLQSSGLYSLSSVVTVPSSSLGTQTYICNVNHKPSNTKVDKRVEPKSCDKTHTCPPCPAPEFLGGPSVFLFPPKPKDTLMISRTPEVTCVVVDVSHEDPEVKFNWYVDGVEVHNAKTKPREEQYNSTYRVVSVLTVLHQDWLNGKEYKCKVSNKALPAPIEKTISKAKGQPREPQVYTLPPSRDELCTKNQVSLTCLVKGFYPSDIAVEWESNGQPENNYKTTPPVLDSDGSFFLYSKLTVDKSRWQQGNVFSCSVMHEALHNHYTQKSLSLSPG light: DILMTQSPSSMSVSLGDTVSITCHSSQDINSNIGWLQQRPGKSFKGLIYHGTNLDDEVPSRFSGSGSGADYSLTISSLESEDFADYYCVQYAQFPWTFGGGTKLEIKRTVAAPSVFIFPPSDEQLKSGTASVVCLLNNFYPREAKVQWKVDNALQSGNSQESVTEQDSKDSTYSLSSTLTLSKADYEKHKVYACEVTHQGLSSPVTKSFNRGEC | > 10 µM | > 10 µM | maintained 2A1 affinity | 0.0415 nM
4 | 2A1-HC-Cys357ins: 2A1 antibody with cysteine inserted at heavy chain position 357 (SEQ ID NO: 34) (antibody) heavy: DVQLQESGPSLVKPSQSLSLTCTVTGYSITSDFAWNWIRQFPGNKLEWMGYISYSGNTRYNPSLKSRISITRDTSKNQFFLQLNSVTIEDTATYYCVTAGRGFPYWGQGTLVTVSAASTKGPSVFPLAPSSKSTSGGTAALGCLVKDYFPEPVTVSWNSGALTSGVHTFPAVLQSSGLYSLSSVVTVPSSSLGTQTYICNVNHKPSNTKVDKRVEPKSCDKTHTCPPCPAPEFLGGPSVFLFPPKPKDTLMISRTPEVTCVVVDVSHEDPEVKFNWYVDGVEVHNAKTKPREEQYNSTYRVVSVLTVLHQDWLNGKEYKCKVSNKALPAPIEKTISKAKGQPREPQVYTLPPSRDELTKCNQVSLTCLVKGFYPSDIAVEWESNGQPENNYKTTPPVLDSDGSFFLYSKLTVDKSRWQQGNVFSCSVMHEALHNHYTQKSLSLSPG light: DILMTQSPSSMSVSLGDTVSITCHSSQDINSNIGWLQQRPGKSFKGLIYHGTNLDDEVPSRFSGSGSGADYSLTISSLESEDFADYYCVQYAQFPWTFGGGTKLEIKRTVAAPSVFIFPPSDEQLKSGTASVVCLLNNFYPREAKVQWKVDNALQSGNSQESVTEQDSKDSTYSLSSTLTLSKADYEKHKVYACEVTHQGLSSPVTKSFNRGEC | > 10 µM | > 10 µM |  | 0.0403 nM
5 | 2A1-HC-Cys378ins: 2A1 antibody with cysteine inserted at heavy chain position 378 (SEQ ID NO: 36) (antibody) heavy: DVQLQESGPSLVKPSQSLSLTCTVTGYSITSDFAWNWIRQFPGNKLEWMGYISYSGNTRYNPSLKSRISITRDTSKNQFFLQLNSVTIEDTATYYCVTAGRGFPYWGQGTLVTVSAASTKGPSVFPLAPSSKSTSGGTAALGCLVKDYFPEPVTVSWNSGALTSGVHTFPAVLQSSGLYSLSSVVTVPSSSLGTQTYICNVNHKPSNTKVDKRVEPKSCDKTHTCPPCPAPEFLGGPSVFLFPPKPKDTLMISRTPEVTCVVVDVSHEDPEVKFNWYVDGVEVHNAKTKPREEQYNSTYRVVSVLTVLHQDWLNGKEYKCKVSNKALPAPIEKTISKAKGQPREPQVYTLPPSRDELTKNQVSLTCLVKGFYPSDIAVEWCESNGQPENNYKTTPPVLDSDGSFFLYSKLTVDKSRWQQGNVFSCSVMHEALHNHYTQKSLSLSPG light: DILMTQSPSSMSVSLGDTVSITCHSSQDINSNIGWLQQRPGKSFKGLIYHGTNLDDEVPSRFSGSGSGADYSLTISSLESEDFADYYCVQYAQFPWTFGGGTKLEIKRTVAAPSVFIFPPSDEQLKSGTASVVCLLNNFYPREAKVQWKVDNALQSGNSQESVTEQDSKDSTYSLSSTLTLSKADYEKHKVYACEVTHQGLSSPVTKSFNRGEC | > 10 µM | > 10 µM |  | 0.0404 nM

Source: patent US12678474B2, “Screening of fixed-point coupling sites of cysteine-modified antibody-toxin conjugate (TDC)” (SICHUAN BAILI PHARMACEUTICAL CO. LTD., priority 2017, dated 2026)
